# According to PMC9352680, “A comprehensive thermodynamic model for RNA binding by the Saccharomyces cerevisiae Pumilio protein PUF4”:
# T1: PUF4 RNA-binding domain (Saccharomyces cerevisiae, UniProt P25339 537-888)
# T1 sequence: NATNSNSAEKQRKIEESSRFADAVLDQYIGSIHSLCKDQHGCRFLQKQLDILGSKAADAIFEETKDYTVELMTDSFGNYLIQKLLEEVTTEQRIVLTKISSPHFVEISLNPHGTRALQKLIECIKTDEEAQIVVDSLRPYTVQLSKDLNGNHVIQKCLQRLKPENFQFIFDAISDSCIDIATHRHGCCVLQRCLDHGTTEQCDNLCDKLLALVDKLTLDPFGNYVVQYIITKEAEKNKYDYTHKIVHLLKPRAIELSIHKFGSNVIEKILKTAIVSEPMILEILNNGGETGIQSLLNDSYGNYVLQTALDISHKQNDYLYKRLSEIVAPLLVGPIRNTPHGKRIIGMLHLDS
# Target: T1, PUF4 RNA-binding domain
# Experiment: Mg; RNA-MaP; 20 mM Na-HEPES pH 7.4, 30 mM KOAc, 0.75 mM MgCl2, 0.1% Tween-20, 5% glycerol, 0.1 mg/mL BSA, 2 mM DTT; 25 C; 0.0125-409.6 nM protein
# Conditions: tags: N-His6-TEV cleaved; C-SNAP kept, Cy3B-labelled; label: tethered on chip by stalled RNA polymerase
row,Binder,Kd
1,ACAAACUCUAUAUAUAAUACAAAC (ssRNA) [Id_ii_S3_P3E.3_K3.2_C3.2_[C-2T]_[T-1C]_H3.2_A3.1_F3.1_T3.2_[T9A]_[A10T]],72 nM
2,ACAAACUUUAUAUAUAAUACAAAC (ssRNA) [Id_ii_S3_P3E.3_K3.2_C3.2_[C-2T]_H3.2_A3.1_F3.1_T3.2_[T9A]_[A10T]],149 nM
3,ACAAACGUUAUAUAUACCACAAAC (ssRNA) [Id_ii_S3_P3E.3_K3.2_C3.2_[C-2G]_H3.2_A3.1_F3.1_T3.2_[T9C]_[A10C]],1700 nM
4,ACAAACUCUAUAUAUAUCACAAAC (ssRNA) [Id_ii_S3_P3E.3_K3.2_C3.2_[C-2T]_[T-1C]_H3.2_A3.1_F3.1_T3.2_[A10C]],493 nM
5,ACAAACUCUAUAUAUACCACAAAC (ssRNA) [Id_ii_S3_P3E.3_K3.2_C3.2_[C-2T]_[T-1C]_H3.2_A3.1_F3.1_T3.2_[T9C]_[A10C]],771 nM
6,UCUCUUUGUAUUUUCAUCUCUU (ssRNA) [Ic_S1_P5E.1_K5.1_C5.1_H5.1_A5.1_[A7T]_F5.1_[T9C]_T5.1],32.5 nM
7,ACAAACUUUAUAUAUAUAACAAAC (ssRNA) [Id_ii_S3_P3E.3_K3.2_C3.2_[C-2T]_H3.2_A3.1_F3.1_T3.2],595 nM
8,ACAAACAGUAUAUAUAACACAAAC (ssRNA) [Id_ii_S3_P3E.3_K3.2_C3.2_[C-2A]_[T-1G]_H3.2_A3.1_F3.1_T3.2_[T9A]_[A10C]],522 nM
9,ACAAACGUUAUAUAUAAUACAAAC (ssRNA) [Id_ii_S3_P3E.3_K3.2_C3.2_[C-2G]_H3.2_A3.1_F3.1_T3.2_[T9A]_[A10T]],660 nM
10,ACAAACACUAUAUAUAAAACAAAC (ssRNA) [Id_ii_S3_P3E.3_K3.2_C3.2_[C-2A]_[T-1C]_H3.2_A3.1_F3.1_T3.2_[T9A]],1080 nM
11,ACAAACACUAUAUAUACGACAAAC (ssRNA) [Id_ii_S3_P3E.3_K3.2_C3.2_[C-2A]_[T-1C]_H3.2_A3.1_F3.1_T3.2_[T9C]_[A10G]],1040 nM
12,ACAAACAGUAUAUAUACCACAAAC (ssRNA) [Id_ii_S3_P3E.3_K3.2_C3.2_[C-2A]_[T-1G]_H3.2_A3.1_F3.1_T3.2_[T9C]_[A10C]],1920 nM
13,ACAAACUAUAUAUAUACAACAAAC (ssRNA) [Id_ii_S3_P3E.3_K3.2_C3.2_[C-2T]_[T-1A]_H3.2_A3.1_F3.1_T3.2_[T9C]],205 nM
14,ACAAACUCUAUAUAUAAAACAAAC (ssRNA) [Id_ii_S3_P3E.3_K3.2_C3.2_[C-2T]_[T-1C]_H3.2_A3.1_F3.1_T3.2_[T9A]],932 nM
15,ACAAACACUAUAUAUACCACAAAC (ssRNA) [Id_ii_S3_P3E.3_K3.2_C3.2_[C-2A]_[T-1C]_H3.2_A3.1_F3.1_T3.2_[T9C]_[A10C]],816 nM
16,ACAAACUCUAUAUAUAGCACAAAC (ssRNA) [Id_ii_S3_P3E.3_K3.2_C3.2_[C-2T]_[T-1C]_H3.2_A3.1_F3.1_T3.2_[T9G]_[A10C]],767 nM
17,ACAAACACUAUAUAUACUACAAAC (ssRNA) [Id_ii_S3_P3E.3_K3.2_C3.2_[C-2A]_[T-1C]_H3.2_A3.1_F3.1_T3.2_[T9C]_[A10T]],43.8 nM
18,ACAAACUUUAUAUAUACAACAAAC (ssRNA) [Id_ii_S3_P3E.3_K3.2_C3.2_[C-2T]_H3.2_A3.1_F3.1_T3.2_[T9C]],925 nM
19,ACAAACUUUAUAUAUAUUACAAAC (ssRNA) [Id_ii_S3_P3E.3_K3.2_C3.2_[C-2T]_H3.2_A3.1_F3.1_T3.2_[A10T]],34.5 nM
20,ACAAACUUUAUAUAUAACACAAAC (ssRNA) [Id_ii_S3_P3E.3_K3.2_C3.2_[C-2T]_H3.2_A3.1_F3.1_T3.2_[T9A]_[A10C]],522 nM
21,UCUCUUUGUAUUCUCAUCUCUU (ssRNA) [Ib_S1_P5E.1_K5.1_C5.1_H5.1_A5.1_[A7C]_F5.1_[T9C]_T5.1],29.8 nM
22,ACAAACGUUAUAUAUAUUACAAAC (ssRNA) [Id_ii_S3_P3E.3_K3.2_C3.2_[C-2G]_H3.2_A3.1_F3.1_T3.2_[A10T]],154 nM
23,ACAAACUCUAUAUAUAACACAAAC (ssRNA) [Id_ii_S3_P3E.3_K3.2_C3.2_[C-2T]_[T-1C]_H3.2_A3.1_F3.1_T3.2_[T9A]_[A10C]],599 nM
24,ACAAACACUAUAUAUAAGACAAAC (ssRNA) [Id_ii_S3_P3E.3_K3.2_C3.2_[C-2A]_[T-1C]_H3.2_A3.1_F3.1_T3.2_[T9A]_[A10G]],450 nM
25,ACAAACACUAUAUAUACAACAAAC (ssRNA) [Id_ii_S3_P3E.3_K3.2_C3.2_[C-2A]_[T-1C]_H3.2_A3.1_F3.1_T3.2_[T9C]],735 nM
26,ACAAACUAUAUAUAUAACACAAAC (ssRNA) [Id_ii_S3_P3E.3_K3.2_C3.2_[C-2T]_[T-1A]_H3.2_A3.1_F3.1_T3.2_[T9A]_[A10C]],376 nM
27,ACAAACUCUAUAUAUAUUACAAAC (ssRNA) [Id_ii_S3_P3E.3_K3.2_C3.2_[C-2T]_[T-1C]_H3.2_A3.1_F3.1_T3.2_[A10T]],39 nM
